Series [1] concerns the target T1, rMBPΔII Ser to Ala mutant in position 8.
T1 chain: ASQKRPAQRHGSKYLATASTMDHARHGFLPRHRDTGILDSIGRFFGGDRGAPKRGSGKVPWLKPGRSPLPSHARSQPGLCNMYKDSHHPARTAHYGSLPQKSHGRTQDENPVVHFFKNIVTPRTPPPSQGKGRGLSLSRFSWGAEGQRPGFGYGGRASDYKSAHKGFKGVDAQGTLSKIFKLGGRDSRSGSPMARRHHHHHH

In series [2] the target is T2, rMBP Ser to Ala mutant in position 57, P02686.
T2 chain: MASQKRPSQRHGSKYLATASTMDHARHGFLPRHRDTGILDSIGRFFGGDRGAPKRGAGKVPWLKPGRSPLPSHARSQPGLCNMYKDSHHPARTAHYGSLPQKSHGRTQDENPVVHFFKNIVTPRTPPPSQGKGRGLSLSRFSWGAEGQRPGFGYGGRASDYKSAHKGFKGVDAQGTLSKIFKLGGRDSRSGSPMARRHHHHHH

A further series has as its target T3, GPΔIII derived peptide.
T3 chain: QRAHGQDLDALFVKVLRSP

Series [3] deals with T4, recombinant 21 kDa myelin basic protein (rMBP), P02686.
T4 chain: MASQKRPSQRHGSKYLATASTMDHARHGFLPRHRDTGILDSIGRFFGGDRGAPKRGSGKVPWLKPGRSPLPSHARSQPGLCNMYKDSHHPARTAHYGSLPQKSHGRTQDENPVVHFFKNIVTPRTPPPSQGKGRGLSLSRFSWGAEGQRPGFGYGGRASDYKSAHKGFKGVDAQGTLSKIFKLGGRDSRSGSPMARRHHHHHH

The target of series [4] is T5, Human recombinant GP antigen (rGP) produced in 293 cells, Q01955.
T5 chain: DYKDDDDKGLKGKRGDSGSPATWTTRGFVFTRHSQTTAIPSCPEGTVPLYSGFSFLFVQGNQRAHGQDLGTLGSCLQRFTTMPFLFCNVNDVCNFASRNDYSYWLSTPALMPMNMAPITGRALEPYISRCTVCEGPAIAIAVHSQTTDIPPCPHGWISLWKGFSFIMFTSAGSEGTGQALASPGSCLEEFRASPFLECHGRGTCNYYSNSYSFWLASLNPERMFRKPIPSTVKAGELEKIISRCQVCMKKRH

For series [5], the target named is T6, recombinant 18.5 kDa myelin basic protein lacking exon II (rMBPΔII).
T6 chain: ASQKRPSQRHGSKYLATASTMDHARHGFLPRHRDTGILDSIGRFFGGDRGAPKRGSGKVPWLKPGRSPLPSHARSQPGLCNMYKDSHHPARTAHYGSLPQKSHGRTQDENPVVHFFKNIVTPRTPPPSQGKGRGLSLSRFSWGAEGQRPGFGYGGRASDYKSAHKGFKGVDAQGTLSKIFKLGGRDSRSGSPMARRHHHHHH

The target of a further series is T7, GPpep1 Ala9.
T7 chain: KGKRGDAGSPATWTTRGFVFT

The target in series [6] is T8, rMBP Ser to Ala mutant in position 8, P02686.
T8 chain: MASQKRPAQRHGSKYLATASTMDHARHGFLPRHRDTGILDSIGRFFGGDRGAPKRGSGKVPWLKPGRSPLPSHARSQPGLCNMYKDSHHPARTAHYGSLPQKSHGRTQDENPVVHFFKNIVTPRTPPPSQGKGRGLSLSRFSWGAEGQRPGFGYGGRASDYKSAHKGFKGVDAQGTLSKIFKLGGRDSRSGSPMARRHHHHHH

In the next series the target is T9, GPpep1.
T9 chain: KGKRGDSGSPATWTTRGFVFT

For series [7], the target named is T10, native human GP antigen (alpha3(IV)NC1 domain), Q01955.
T10 chain: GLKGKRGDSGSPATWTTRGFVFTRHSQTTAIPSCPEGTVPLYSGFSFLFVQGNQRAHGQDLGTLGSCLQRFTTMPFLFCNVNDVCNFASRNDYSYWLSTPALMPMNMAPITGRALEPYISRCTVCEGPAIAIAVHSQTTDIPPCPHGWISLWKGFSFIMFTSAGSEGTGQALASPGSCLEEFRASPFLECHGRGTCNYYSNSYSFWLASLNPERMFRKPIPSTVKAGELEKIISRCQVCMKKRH

Series [8] deals with T11, rMBPΔII Ser to Ala mutant in position 57.
T11 chain: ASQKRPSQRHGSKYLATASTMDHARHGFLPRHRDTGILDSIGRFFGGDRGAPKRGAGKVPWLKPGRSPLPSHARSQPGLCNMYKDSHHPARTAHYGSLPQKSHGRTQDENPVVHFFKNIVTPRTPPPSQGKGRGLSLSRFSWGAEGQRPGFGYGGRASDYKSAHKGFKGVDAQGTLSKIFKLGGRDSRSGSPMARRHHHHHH

Series [9] deals with the molecule itself. The series is described as follows: gel filtration HPLC and analytical ultracentrifugation (peak II 220±10 kDa, likely trimers). As for the experimental part:
FIG. 11. rGPBP and rGPBPΔ26 form very active high molecular weight aggregates. About 300 μg of rGPBP (A) or rGPBPΔ26 (B) were subjected to gel filtration HPLC as described under Material and Methods. Vertical arrowheads and numbers respectively indicate the elution profile and molecular mass (kDa) of the molecular weight standards used. Larger aggregates eluted in the void volume (I), and the bulk of the material present in the samples eluted in the fractionation range of the column as a second peak between the 669 and 158 kDa markers (II). Fifteen microliters of the indicated minute fractions were subjected to SDS-PAGE and Coomasie blue staining. Five microliters of the same fractions were in vitro phosphorylated as described in Materials and Methods, and the reaction stopped by boiling in SDS sample buffer. […]
Gel-filtration HPLC. […] The material was eluted from the column at 0.5 ml/min, monitored at 220 nm and minute fractions collected.
rGPBP and rGPBP-26 exist as very active high molecular weight aggregates. Gel filtration analysis of affinity-purified rGPBP or rGPBPΔ26 yielded two chromatographic peaks (I and II), both displaying higher MW than expected for the individual molecular species, as determined by SDS-PAGE studies (89 kDa and 84 kDa, respectively ) (FIG. 11). […] ATP, and analyzed by immunoblot and autoradiography.

In series [10] the target is T12, HeLa1 beta-galactosidase-derived fusion protein containing the N-terminal 150 residues of GPBP (human, UniProt Q5R6M6 1-150 (Pongo abelii entry)).
T12 construct: Expressed from the lambda-gt11 clone on library filters and as a lysogen in E. coli Y1089; also called HeLa1 lambda-gt11 fusion protein; not shown: beta-galactosidase part encoded by the lambda-gt11 vector
T12 sequence: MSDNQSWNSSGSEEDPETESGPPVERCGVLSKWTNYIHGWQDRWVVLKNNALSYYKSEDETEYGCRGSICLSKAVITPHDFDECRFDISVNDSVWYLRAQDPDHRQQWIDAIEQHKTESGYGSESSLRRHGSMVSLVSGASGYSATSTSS
Kind of series: lambda-gt11 expression library filters overlaid with GPpep1, detected with monoclonal antibody. Here is the method: Isolation and characterization of cDNA clones encoding human GPBP—Several human λ-gt11 cDNA expression libraries (eye, fetal and adult lung, kidney and HeLa S3, from CLONTECH) were probed for cDNAs encoding proteins interacting with GPpep1. Nitrocellulose filters (Millipore) prepared following standard immunoscreening procedures were blocked and incubated with 1-10 nmoles per ml of GPpep1 at 37° C. Specifically bound GPpep1 was detected using M3/1A monoclonal antibodies (7). A single clone was identified in the HeLa-derived library (HeLa1). Specificity of fusion protein binding was confirmed by similar binding to recombinant eukaryotic human GP antigen. The EcoRI cDNA insert of HeLa1 (0.5-kb) was used to further screen the same library and to isolate overlapping cDNAs. The largest cDNA (2.4-kb) containing the entire cDNA of HeLa1 (n4′) was fully sequenced.

B1: FLAG-tagged recombinant GPBP (rGPBP) (protein)
chain: DYKDDDDKMSDNQSWNSSGSEEDPETESGPPVERCGVLSKWTNYIHGWQDRWVVLKNNALSYYKSEDETEYGCRGSICLSKAVITPHDFDECRFDISVNDSVWYLRAQDPDHRQQWIDAIEQHKTESGYGSESSLRRHGSMVSLVSGASGYSATSTSSFKKGHSLREKLAEMETFRDILCRQVDTLQKYFDACADAVSKDELQRDKVVEDDEDDFPTTRSDGDFLHSTNGNKEKLFPHVTPKGINGIDFKGEAITFKATTAGILATLSHCIELMVKREDSWQKRLDKETEKKRRTEEAYKNAMTELKKKSHFGGPDYEEGPNSLINEEEFFDAVEAALDRQDKIEEQSQSEKVRLHWPTSLPSGDAFSSVGTHRFVQKPYSRSSSMSSIDLVSASDDVHRFSSQVEEMVQNHMTYSLQDVGGDANWQLVVEEGEMKVYRREVEENGIVLDPLKATHAVKGVTGHEVCNYFWNVDVRNDWETTIENFHVVETLADNAIIIYQTHKRVWPASQRDVLYLSVIRKIPALTENDPETWIVCNFSVDHDSAPLNNRCVRAKINVAMICQTLVSPPEGNQEISRDNILCKITYVANVNPGGWAPASVLRAVAKREYPKFLKRFTSYVQEKTAGKPILF
On to B1, for which the “^32P incorporation, in situ phosphorylation of blotted substrate” value in series [1] was “recombinant Ser to Ala mutants displayed no significant reduction in ^32P incorporation”; in series [2], “recombinant Ser to Ala mutants displayed no significant reduction in ^32P incorporation”; in series [3] it was “GPBP preferentially phosphorylated MBP”; in series [5] it was “little phosphorylation of MBPΔII was observed”; in series [6], “recombinant Ser to Ala mutants displayed no significant reduction in ^32P incorporation”; in [8] it was “recombinant Ser to Ala mutants displayed no significant reduction in ^32P incorporation”. Besides, the “^32P incorporation, in vitro phosphorylation” value is recorded as “no appreciable ^32P-incorporation was observed in the bovine-derived substrate” with native bovine GP antigen; “Affinity-purified rGPBP phosphorylates all human-derived material to a different extent” in [4]; “The lower ^32P incorporation displayed by GPpep1 Ala^9 when compared with GPpep1” with GPpep1 Ala9; “Affinity-purified rGPBP phosphorylates all human-derived material to a different extent” in the series with GPpep1; “Affinity-purified rGPBP phosphorylates all human-derived material to a different extent” in [7]. Besides, the “GPBP autophosphorylation, 5 nmol peptide, Boc chemistry” value with GPΔIII derived peptide was “Boc-based synthetic peptides positively influenced GPBP autophosphorylation”. Also, the “GPBP autophosphorylation, 5 nmol peptide, Fmoc chemistry” value with GPΔIII derived peptide is reported as “Fmoc-based inhibited GPBP autophosphorylation”.

B2: FLAG-tagged recombinant GPBP (rGPBP) (enzyme)
chain: DYKDDDDKMSDNQSWNSSGSEEDPETESGPPVERCGVLSKWTNYIHGWQDRWVVLKNNALSYYKSEDETEYGCRGSICLSKAVITPHDFDECRFDISVNDSVWYLRAQDPDHRQQWIDAIEQHKTESGYGSESSLRRHGSMVSLVSGASGYSATSTSSFKKGHSLREKLAEMETFRDILCRQVDTLQKYFDACADAVSKDELQRDKVVEDDEDDFPTTRSDGDFLHSTNGNKEKLFPHVTPKGINGIDFKGEAITFKATTAGILATLSHCIELMVKREDSWQKRLDKETEKKRRTEEAYKNAMTELKKKSHFGGPDYEEGPNSLINEEEFFDAVEAALDRQDKIEEQSQSEKVRLHWPTSLPSGDAFSSVGTHRFVQKPYSRSSSMSSIDLVSASDDVHRFSSQVEEMVQNHMTYSLQDVGGDANWQLVVEEGEMKVYRREVEENGIVLDPLKATHAVKGVTGHEVCNYFWNVDVRNDWETTIENFHVVETLADNAIIIYQTHKRVWPASQRDVLYLSVIRKIPALTENDPETWIVCNFSVDHDSAPLNNRCVRAKINVAMICQTLVSPPEGNQEISRDNILCKITYVANVNPGGWAPASVLRAVAKREYPKFLKRFTSYVQEKTAGKPILF
modifications: contains phosphoserine, phosphothreonine and phosphotyrosine; positions not given
notes: Expressed in Pichia pastoris (pHIL-FLAG-n4') or in 293 cells (pc-FLAG-n4'); ON-GPBP-54m also encodes an initiation Met and a few residues before the FLAG; also called yeast rGPBP; FLAG-n4'
Regarding B2, the binding result in [9] is on record as “binds”.

B3: GPpep1 (peptide)
peptide: KGKRGDSGSPATWTTRGFVFT
notes: also called 21-residue peptide representing residues 3-23 of the human GP antigen
As to B3, in series [10], the binding result is given as “binds”.

These data come from patent US20030054488A1 (published 2003).
